Reference: US20240262919A1 (SHANGHAITECH UNIVERSITY, published 2024)

T1: human IL-18Rβ ECD Fc fusion (118-AP-100, R&D Systems) (human, UniProt O95256 20-356)
T1 construct: Bought protein; also called hIL-18Rβ; recombinant human IL-18Rb; not shown: Fc tag of the bought fusion protein, not described
T1 sequence: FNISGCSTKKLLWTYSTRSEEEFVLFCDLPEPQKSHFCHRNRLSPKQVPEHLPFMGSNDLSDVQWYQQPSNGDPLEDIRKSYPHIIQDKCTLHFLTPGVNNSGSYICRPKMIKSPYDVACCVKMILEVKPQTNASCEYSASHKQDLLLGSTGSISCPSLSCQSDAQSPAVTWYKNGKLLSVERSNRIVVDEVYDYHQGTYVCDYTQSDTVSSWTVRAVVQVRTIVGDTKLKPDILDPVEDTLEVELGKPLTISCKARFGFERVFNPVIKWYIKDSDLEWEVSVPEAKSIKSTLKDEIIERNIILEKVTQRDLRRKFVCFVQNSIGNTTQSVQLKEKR

B1: 3131 AM2-1 (Fab, V domains shown)
VH: EVQLVESGGGLVQPGGSLRLSCAASGFNLYYSSMHWVRQAPGKGLEWVASIYSSYGYTYYADSVKGRFTISADTSKNTAYLQMNSLRAEDTAVYYCARSSFSHGYGWYGLDYWGQGTLVTVSS
VL: DIQMTQSPSSLSASVGDRVTITCRASQSVSSAVAWYQQKPGKAPKLLIYSASSLYSGVPSRFSGSRSGTDFTLTISSLQPEDFATYYCQQYGYHHAGLITFGQGTKVEIK
notes: Fab
B2: 3131 AM2-2 (Fab, V domains shown)
VH: EVQLVESGGGLVQPGGSLRLSCAASGFNLYYSSMHWVRQAPGKGLEWVASIYSSHGRTGYADSVKGRFTISADTSKNTAYLQMNSLRAEDTAVYYCARSSFSHGYGWYGLDYWGQGTLVTVSS
VL: DIQMTQSPSSLSASVGDRVTITCRASQSVSSAVAWYQQKPGKAPKLLIYSASSRDSGVPSRFSGSRSGTDFTLTISSLQPEDFATYYCQQYGYHYAGLITFGQGTKVEIK
notes: Fab
B3: 3131 AM2-3 (Fab, V domains shown)
VH: EVQLVESGGGLVQPGGSLRLSCAASGFNLYYSSMHWVRQAPGKGLEWVASIYSSSGYTSYADSVKGRFTISADTSKNTAYLQMNSLRAEDTAVYYCARSSFSHGYGWYGLDYWGQGTLVTVSS
VL: DIQMTQSPSSLSASVGDRVTITCRASQSVSSAVAWYQQKPGKAPKLLIYSASSLYSGVPSRFSGSRSGTDFTLTISSLQPEDFATYYCQQYGYHYAGLITFGQGTKVEIK
notes: Fab
B4: 3131 AM2-4 (Fab, V domains shown)
VH: EVQLVESGGGLVQPGGSLRLSCAASGFNLYYSSMHWVRQAPGKGLEWVASIYSSSGSTCYADSVKGRFTISADTSKNTAYLQMNSLRAEDTAVYYCARSSFSHGYGWYGLDYWGQGTLVTVSS
VL: DIQMTQSPSSLSASVGDRVTITCRASQSVSSAVAWYQQKPGKAPKLLIYSASSLYSGVPSRFSGSRSGTDFTLTISSLQPEDFATYYCQQYGYHYAGLITFGQGTKVEIK
notes: Fab
B5: 3131 AM2-5 (Fab, V domains shown)
VH: EVQLVESGGGLVQPGGSLRLSCAASGFNLYYSSMHWVRQAPGKGLEWVASIYSSSGDTHYADSVKGRFTISADTSKNTAYLQMNSLRAEDTAVYYCARSSFSHGYGWYGLDYWGQGTLVTVSS
VL: DIQMTQSPSSLSASVGDRVTITCRASQSVSSAVAWYQQKPGKAPKLLIYSASSLYSGVPSRFSGSRSGTDFTLTISSLQPEDFATYYCQQYGYHYAGLITFGQGTKVEIK
notes: Fab
B6: 3131 AM2-6 (Fab, V domains shown)
VH: EVQLVESGGGLVQPGGSLRLSCAASGFNLYYSSMHWVRQAPGKGLEWVASIYSSHGGTNYADSVKGRFTISADTSKNTAYLQMNSLRAEDTAVYYCARSSFSHGYGWYGLDYWGQGTLVTVSS
VL: DIQMTQSPSSLSASVGDRVTITCRASQSVSSAVAWYQQKPGKAPKLLIYSASSLYSGVPSRFSGSRSGTDFTLTISSLQPEDFATYYCQQYGYHYAGLITFGQGTKVEIK
notes: Fab
B7: 3131 AM2-7 (Fab, V domains shown)
VH: EVQLVESGGGLVQPGGSLRLSCAASGFNLYYSSMHWVRQAPGKGLEWVASIYSSHGGTYYADSVKGRFTISADTSKNTAYLQMNSLRAEDTAVYYCARSSFSHGYGWYGLDYWGQGTLVTVSS
VL: DIQMTQSPSSLSASVGDRVTITCRASQSVSSAVAWYQQKPGKAPKLLIYSASSLYSGVPSRFSGSRSGTDFTLTISSLQPEDFATYYCQQYGYHDAGLITFGQGTKVEIK
notes: Fab
B8: 3131 AM2-9 (Fab, V domains shown)
VH: EVQLVESGGGLVQPGGSLRLSCAASGFNLYYSSMHWVRQAPGKGLEWVASIYSSYGYTYYADSVKGRFTISADTSKNTAYLQMNSLRAEDTAVYYCARSSFSHGYGWYGLDYWGQGTLVTVSS
VL: DIQMTQSPSSLSASVGDRVTITCRASQSVSSAVAWYQQKPGKAPKLLIYSASSLYSGVPSRFSGSRSGTDFTLTISSLQPEDFATYYCQQYGYHNAGLITFGQGTKVEIK
notes: Fab
B9: 3131 AM2-13 (Fab, V domains shown)
VH: EVQLVESGGGLVQPGGSLRLSCAASGFNLYYSSMHWVRQAPGKGLEWVASIYSSYGYTYYADSVKGRFTISADTSKNTAYLQMNSLRAEDTAVYYCARSSFSHGYGWYGLDYWGQGTLVTVSS
VL: DIQMTQSPSSLSASVGDRVTITCRASQSVSSAVAWYQQKPGKAPKLLIYSASSLYSGVPSRFSGSRSGTDFTLTISSLQPEDFATYYCQQYGYHDAGLITFGQGTKVEIK
notes: Fab
B10: 3131 AM2-14 (Fab, V domains shown)
VH: EVQLVESGGGLVQPGGSLRLSCAASGFNLYYSSMHWVRQAPGKGLEWVASIYSSYGYTYYADSVKGRFTISADTSKNTAYLQMNSLRAEDTAVYYCARSSFSHGYGWYGLDYWGQGTLVTVSS
VL: DIQMTQSPSSLSASVGDRVTITCRASQSVSSAVAWYQQKPGKAPKLLIYSASSLYSGVPSRFSGSRSGTDFTLTISSLQPEDFATYYCQQYGYHGAGLITFGQGTKVEIK
notes: Fab
B11: 3131 AM2-15 (Fab, V domains shown)
VH: EVQLVESGGGLVQPGGSLRLSCAASGFNLYYSSMHWVRQAPGKGLEWVASIYSSSGDTGYADSVKGRFTISADTSKNTAYLQMNSLRAEDTAVYYCARSSFSHGYGWYGLDYWGQGTLVTVSS
VL: DIQMTQSPSSLSASVGDRVTITCRASQSVSSAVAWYQQKPGKAPKLLIYSASSLYSGVPSRFSGSRSGTDFTLTISSLQPEDFATYYCQQYGYHYAGLITFGQGTKVEIK
notes: Fab
B12: 3131 AM2-17 (Fab, V domains shown)
VH: EVQLVESGGGLVQPGGSLRLSCAASGFNLYYSSMHWVRQAPGKGLEWVASIYSSHGNTDYADSVKGRFTISADTSKNTAYLQMNSLRAEDTAVYYCARSSFSHGYGWYGLDYWGQGTLVTVSS
VL: DIQMTQSPSSLSASVGDRVTITCRASQSVSSAVAWYQQKPGKAPKLLIYSASSLYSGVPSRFSGSRSGTDFTLTISSLQPEDFATYYCQQYGYHYAGLITFGQGTKVEIK
notes: Fab
B13: 3131 AM2-18 (Fab, V domains shown)
VH: EVQLVESGGGLVQPGGSLRLSCAASGFNLYYSSMHWVRQAPGKGLEWVASIYSSGGSTSYADSVKGRFTISADTSKNTAYLQMNSLRAEDTAVYYCARSSFSHGYGWYGLDYWGQGTLVTVSS
VL: DIQMTQSPSSLSASVGDRVTITCRASQSVSSAVAWYQQKPGKAPKLLIYSASSLYSGVPSRFSGSRSGTDFTLTISSLQPEDFATYYCQQYGYHYAGLITFGQGTKVEIK
notes: Fab
B14: 3131 AM2-21 (Fab, V domains shown)
VH: EVQLVESGGGLVQPGGSLRLSCAASGFNLYYSSMHWVRQAPGKGLEWVASIYSSYGYTYYADSVKGRFTISADTSKNTAYLQMNSLRAEDTAVYYCARSSFSHGYGWYGLDYWGQGTLVTVSS
VL: DIQMTQSPSSLSASVGDRVTITCRASQSVSSAVAWYQQKPGKAPKLLIYSGSSGRSGVPSRFSGSRSGTDFTLTISSLQPEDFATYYCQQYGYHYAGLITFGQGTKVEIK
notes: Fab
B15: 3131 AM2-24 (Fab, V domains shown)
VH: EVQLVESGGGLVQPGGSLRLSCAASGFNLYYSSMHWVRQAPGKGLEWVASIYSSYGYTYYADSVKGRFTISADTSKNTAYLQMNSLRAEDTAVYYCARSSFSHGYGWYGLDYWGQGTLVTVSS
VL: DIQMTQSPSSLSASVGDRVTITCRASQSVSSAVAWYQQKPGKAPKLLIYSDSSLYSGVPSRFSGSRSGTDFTLTISSLQPEDFATYYCQQYGYHYAGLITFGQGTKVEIK
notes: Fab

Experiments:
[1] = molecular target: T1, human IL-18Rβ ECD Fc fusion …; assay: ELISA on recombinant human IL-18Rβ, normalised OD 450 nm, Fab with PBS or with saturating IgG 3131 [top plot]
From the text: (§1) The results are presented in FIG. 9, in which the binding signals for purified. […] Error bars represent standard deviation of replicate measurements.

[2] = molecular target: T1, human IL-18Rβ ECD Fc fusion …; assay: ELISA on recombinant human IL-18Rβ, normalised OD 450 nm, Fab with PBS or with saturating IgG 3131 [middle plot]
From the text: as §1

Binder | binding result [1] | binding result [2]
B1 | binds | –
B2 | binds | –
B3 | binds | –
B4 | binds | –
B5 | binds | –
B6 | binds | –
B7 | binds | –
B8 | binds | –
B9 | binds | –
B10 | binds | –
B11 | – | binds
B12 | – | binds
B13 | – | binds
B14 | – | binds
B15 | – | binds
